In patent publication US8492099B2, “Method of measuring enzymatic activity of adsorbed allergenic enzyme” (Alk-Abello A/S, priority 2005, dated 2013):
Values belong to the molecule of their own block, whether it stands above or below them.

Columns and labels:
papain = molecular target: T1, papain (Carica papaya, UniProt P00784); conditions: 12.5 nM E-64, papain 5 nM
T1 sequence (P00784 134-345): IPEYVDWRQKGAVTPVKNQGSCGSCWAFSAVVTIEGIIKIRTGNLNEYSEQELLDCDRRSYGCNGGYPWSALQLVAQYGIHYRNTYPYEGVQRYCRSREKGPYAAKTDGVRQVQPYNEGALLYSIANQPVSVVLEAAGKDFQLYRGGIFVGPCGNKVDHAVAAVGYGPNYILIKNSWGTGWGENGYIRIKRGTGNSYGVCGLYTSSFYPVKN
Protocol: Stock solutions of 1M DTT and 100 mM EDTA were made in the beginning of the experimental period, frozen at −20° C., and used through the entire project period. Each day a new buffer was made containing the reducing agent DTT and EDTA from the stock solutions. […] DTT is continuously oxidized by the oxygen in the air and therefore a new buffer must be made each day. […] The microtiter plate was opaque to avoid cross contamination of emitted fluorescence between wells. The substrate was diluted to the final concentration in the newly made buffer containing DTT and EDTA and transferred to the microtiter plate. The enzyme was diluted in the same buffer and incubated 10 min in the case of papain and 20 min in the case of Der p 1, for their activation. Mixing, transferring and incubation were carried out at room temperature. After incubation the enzyme solution was transferred to the microtiter plate and the measurements were initiated. The measurements were carried out for 10 min with a total of 36 measurements for each well and automatic mixture between each measurement.
EDTA was added at 1 mM, and DTT at 5 mM final concentrations.

[1] = Quenching of AMC fluorescence by aluminium hydroxide; format: physicochemical; conditions: 1 μM AMC, during the time of the assay
Source text: This AMC concentration is equivalent to the enzymatic assay AMC concentration generated by papain and Der p 1.

[2] = Adsorption of Der p 1 to aluminium hydroxide: protein concentration by A280; format: physicochemical
Source text: The aromatic amino acids tryptophan, tyrosine and phenylalanine absorb ultraviolet light. However only tryptophan and tyrosine absorb at 280 nm and tryptophan absorbs 5 times more light than tyrosine. This is due to the […] transition in the indole ring of tryptophan where phenylalanine and tyrosine contains a phenyl group. The absorbance of a protein is linearly correlated with the amount of tryptophan and tyrosine in the protein, the length of the light path and the concentration of protein. This relationship is named Lambert-Beer's law and is given by: A=ε·l·c where A is the absorbance, ε is the molar absorption coefficient for the protein (determined by the amount of tryptophan and tyrosine in the protein) l is the length of the light path and c is the protein concentration. Thus from an absorbance measurement the concentration of protein can be estimated if the molar absorptivity coefficient is known. • Apparatuses • Lambda 800 UV/VIS Spectrometer, PerkinElmer™ • 100-QS, quartz cuvette, path length 1 cm, Hellma® • Materials and Reagents • 50 mM Bis-Tris pH 6.5, Sigma • 50 mM Tris pH 7.0, Sigma • 50 mM phosphate buffer pH 7.0, Merck • 2% Helmanex solution, Hellma Experimental Procedure
The spectrophotometer was turned on 30 min prior to use for a warm up period. The wavelength of the spectrophotometer was set to 280 nm and the instrument was zeroed to a blank sample containing the matrix of the true sample. The quartz cuvette was washed first with a 2% Helmanex solution and then 4 times with MQ water and afterwards dried with high pressure air. […] After cleaning the cuvette 20 μL of sample was transferred to the cuvette and the absorbance was measured.
(§1) After adsorption 500 μL was taken out for further analysis and the rest of the mixture was centrifuged for 10 min at 4000 rpm. […] Con1 was analyzed in the beginning of the experiment and Con2 was analyzed at the end of the 2 hours experiment.
The absorbance measurements were converted to protein concentration by the Lambert-Beer's law using a molar absorption coefficient for Der p 1 of […] as shown in table 8a. […]

[3] = Der p 1 enzyme activity fluorescence assay (activity measurements and Michaelis-Menten kinetic), Der p 1/aluminium hydroxide adsorption experiment; format: biochemical
Protocol: After measuring the enzymatic activity the maximal slope of the progress curve was estimated using the software SoftMax® PRO Life Sciences Edition, Molecular Devices, 2001. After estimating the initial velocity of the experiments they were transferred to Prism and analyzed.
as §1, with “rpm. An elution step was performed for 1 h at 4° C. where the pellet of Mix2 was resuspended in phosphate buffer.” for “rpm.”
Different types of enzymatic assays were performed: (i) activity measurements using a fixed substrate concentration to evaluate enzyme activity, and (ii) Michaelis-Menten kinetic to estimate the kinetic parameters Vmax and KM.
All activity assays were conducted with Tris buffer, pH 7.0, 5 mM DTT, 1 mM EDTA and Boc-QAR-AMC as substrate.

[4] = Adsorption of Der p 1 to aluminium hydroxide: protein concentration by rocket immune electrophoresis (RIE); format: physicochemical
Source text: This method was used to quantify a given protein by measuring the propagation of protein-antibody complex after electrophoresis in an agarose gel containing antibodies directed against the protein under investigation.
This method is based on the mobility of protein-antibody complex in an agarose gel during electrophoresis. The antibodies are incorporated into the agarose gel during polymerization and the sample protein is then applied to the wells. The proteins move according to their electrophoretic mobility encountering the antibodies in the gel and forming complexes. These complexes grow in size as the antigen encounters more and more antibodies thereby limiting the migration through the pores of the gel until no further migration occurs. The complexes are visualized by staining the gel. The area delimited by the complexes is proportional to the amount of protein applied to the well. The quantification is performed relative to an internal standard preparation applied in a dilution series on the same gel.
A glass plate was placed on a leveled surface and cleaned with ethanol. 11 mL agarose was pipetted into a test tube in a 56° C. water bath, 15 μL antibody was added, and the solution was mixed gently by inversion. The agarose was poured onto the glass plate carefully avoiding formation of air bubbles. After gelation a series of wells were punched 1.5 cm from the lower edge of the plate. The plate was placed on the cooled surface of the electrophoresis apparatus. Connecting bridges of 5 layers of filter paper were established and the voltage across the gel adjusted to 2V/cm. 10 μL of sample was applied to the wells. […]
as §1
Another method applied to quantify protein content was RIE. The samples Con1, Con2, Sup, and Elu were evaluated together with three Der p 1 standards (125 ng, 250 ng, and 500 ng). […]

[5] = tested on: IgE from sera of HDM allergic patients; test: IgE inhibition assay (ADVIA centaur); format: binding, human
Protocol: This assay evaluates the capacity that an allergen has to bind IgE from sera of patients allergic to that allergen source.
IgE inhibition experiments were performed on an ADVIA centaur instrument. Serial dilutions (performed with the TECAN (P-05-07F294)) of the inhibitor (Antigen in solution or antigen gel adjuvant vaccine) were mixed with a fixed amount of biotinylated antigen and further incubated with a solid phase absorbed IgE. The amount of biotinylated allergen bound to the solid phase was estimated as the light emitted after incubation with streptavidin labelled with acridinium ester. The raw data was processed in Excel and transferred to GraphPad Prism v. 4.0 for the final analysis (curve fitting, plotting and statistical comparisons). The data was fitted to a four parameter logistic function:
After the adsorption the solution was centrifuged for 5 minutes at 13,000 rpm. […] A Der p extract sample was prepared for incubation with pooled sera IgE.

[6] = Adsorbed: Der p 1 adsorbed to aluminium hydroxide (mix 2)
[7] = Control: Der p 1 in the absence of aluminium hydroxide
[8] = Eluted: Der p 1 eluted from aluminium hydroxide with phosphate buffer

Molecule: CC(C)C[C@H](NC(=O)[C@H]1O[C@@H]1C(=O)O)C(=O)NCCCCN=C(N)N (relative stereo) [E-64, L-trans-epoxysuccinyl-L-leucylamido (4-guanidino) butane]
- Inhibition of papain enzyme activity (papain): does not completely inhibit

- Quenching of fluorescence by aluminium hydroxide [1]: no quenching occurred
Molecule: Cc1cc(=O)oc2cc(N)ccc12 [AMC]

- Difference in activity between Con1, Con2 and Mix1 ([3]; one-way ANOVA p-value=0.76, 2 hours experiment): no significant difference
B1: Der p 1: major house dust mite allergen, family C1 cysteine protease, purified from D. pteronyssinus extract (protein, UniProt P08176 99-320, looked up)
Peptidase 1: TNACSINGNAPAEIDLRQMRTVTPIRMQGGCGSCWAFSGVAATESAYLAYRNQSLDLAEQELVDCASQHGCHGDTIPRGIEYIQHNGVVQESYYRYVAREQSCRRPNAQRFGISNYCQIYPPNVNKIREALAQTHSAIAVIIGIKDLDAFRHYDGRTIIQRDNGYQPNYHAVNIVGYSNAQGVDYWIVRNSWDTNWGDNGYGYFAANIDLMMIEEYPYVVIL
- Adsorbed protein eluted from aluminium hydroxide using phosphate buffer [2]: 56%
- Protein content in Con1 found in Sup [2]: 32%
- Adsorption degree ([2]; 100 μg/mL Der p 1, 1.14 mg/mL aluminium hydroxide, 1 h at 4° C.): approximately 70%
- Vmax in Mix2 relative to Vmax in Mix1 [3]: 62%
- Vmax in Sup relative to Vmax in Mix1 [3]: 30%
- Km [3, 6]: 56 µM
- Vmax [3, 6]: 0.15 ng/mL · s
- kcat (Vmax/protein concentration, A280) [3, 6]: 0.022 s⁻¹
- kcat (Vmax/protein concentration, RIE) [3, 6]: 0.019 s⁻¹
- Vmax [3, 7]: 0.25 ng/mL · s
- kcat (Vmax/protein concentration, A280) [3, 7]: 0.024 s⁻¹
- kcat (Vmax/protein concentration, RIE) [3, 7]: 0.018 s⁻¹
- Km ([3]; Control: Der p 1 in the absence of aluminium hydroxide, Boc-QAR-AMC, pH 7.0): 47 µM
- Km [3, 8]: 51 µM
- Vmax [3, 8]: 0.11 ng/mL · s
- kcat (Vmax/protein concentration, A280) [3, 8]: 0.025 s⁻¹
- kcat (Vmax/protein concentration, RIE) [3, 8]: 0.014 s⁻¹
- Difference between Vmax of Con1 and Mix1 ([3]; Newman Keuls multiple comparison test p>0.05): no significant difference
- Activity in Mix2 found in Elu ([3]; Vmax): 68%
- Activity of Der p 1 adsorbed to aluminium hydroxide ([3]; activity measurements): 66%
- Adsorbed activity desorbed after elution from Mix2 with phosphate buffer ([3]; activity measurements): 67%
- Activity of non adsorbed Der p 1 in Sup relative to activity in Mix1 ([3]; activity measurements, 100 μM Boc-QAR-AMC): 33%
- Part of the Der p 1 molecules adsorbed to the aluminium hydroxide ([3]; conclusion): 60-70%
- Vmax of Con2 lower than Vmax in Con1 ([3]; end vs beginning of 2 hours experiment, absence of aluminium hydroxide, t-test p-value=0.0024): 14%
- Difference between KM means of the samples ([3]; one-way ANOVA p-value=0.62): no significant difference
- Adsorbed protein eluted from aluminium hydroxide using phosphate buffer [4]: 98%
- Adsorption degree [4]: approximately 56%
- Protein content in Con1 found in Sup [4]: 44%
- Inhibition of IgE binding, bottom levels of Con1 and Elu ([5]; Der p 1 without aluminium hydroxide (Con1) vs eluted from aluminium hydroxide (Elu)): complete inhibition is possible
- Hill slopes of Con1 and Elu ([5]; one sample t-test p=0.83): not significantly different
